T1: murine B7-H3 antigen (R&D cat# 1397-B3-050/CF) (murine, UniProt Q8VE98 29-244)
T1 construct: Commercial protein; also called mouse B7-H3
T1 sequence: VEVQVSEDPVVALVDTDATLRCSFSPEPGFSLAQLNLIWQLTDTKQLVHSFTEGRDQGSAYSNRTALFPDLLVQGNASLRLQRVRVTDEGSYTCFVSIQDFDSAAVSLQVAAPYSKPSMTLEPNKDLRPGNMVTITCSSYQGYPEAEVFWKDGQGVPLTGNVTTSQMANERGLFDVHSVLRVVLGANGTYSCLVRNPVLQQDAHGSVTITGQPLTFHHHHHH

B1: h1702-IgG1 (antibody, V domains shown)
VH: QVQLVQSGGGVVQPGTSLRLSCAASGFIFSSSAMHWVRQAPGKGLEWVAVISYDGSNKYYVDSVKGRFTISRDNSKNTLYLQMNSLRAEDTAVYYCARSARLYASFDYWGQGALVTVSS
VL: QTVVTQEPSFSVSPGGTVTLTCGLSSGSVSTSHYPSWYQQTPGQAPRMLIYNTNTRSSGVPDRFSGSILGNKAALTITGAQADDESDYYCAIHVDRDIWVFGGGTKLTVLG
notes: Fully human IgG1 with lambda light chain, from an scFv phage library, expressed in HEK293E cells
B2: h1703-IgG1 (antibody, V domains shown)
VH: QVQLQESGGGLVQPGGSLRLSCAASGFTFSSYAMSWVRQAPGKGLEWVSAISGSGGSTYYADSVKGRYTISRDNSKNTLYLQMNSLRAEDTAVYYCAKGVGPVHALDVWGQGTTVTVSS
VL: DIRLTQSPSSLSASVGDRVTITCRASQSISTYLNWYQQKPGKAPILLINAVSGLQSGVPSRFSGSGSGTHFTLTITSLQPEDFATYYCQQSYSTPMWTFGQGTKVEIKR
notes: Fully human IgG1 with kappa light chain, from an scFv phage library, expressed in HEK293E cells

Experiments:
[1] = target: T1, murine B7-H3 antigen (R&D cat# …); test: SPR (Biacore T200), antibody captured on Protein A chip, antigen in flow, 1:1 Langmuir fit
From the text: A biosensor chip Protein A (Cat. # 29127556, GE) was used to affinity capture a certain amount of antibody to be tested. A series diluted of human 2Ig-B7-H3 antigen (Cat. #1949-B3-050/CF, R&D), human 4Ig-B7-H3 antigen (Cat. #11188-H08H, Sino Biological) or murine B7-H3 antigen (Cat. # 1397-B3-050/CF, R&D) was flowed through the surface of the chip. Real-time reaction signal was detected by using Biacore instrument (Biacore T200, GE), in order to obtain association and dissociation curves. After completion of each cycle of dissociation, the biochip was washed and regenerated with glycine-hydrochloric acid regeneration solution (pH 1.5) (Cat.#BR-1003-54, GE). The buffer used in the experiment was HBS-EP buffer solution (pH 7.4) (Cat. # BR-1001-88, GE).
The experimental data was fitted with BIA evaluation version 4.1 GE software in a (1:1) Langmuir model to obtain affinity values.

[2] = target: B7-H3 on U87MG tumor cells (human) (UniProt Q5ZPR3); test: flow cytometry on U87MG cells, APC anti-human IgG Fc detection, geometric mean fluorescence
Chain of B7-H3 on U87MG tumor cells (human) (Q5ZPR3 29-534): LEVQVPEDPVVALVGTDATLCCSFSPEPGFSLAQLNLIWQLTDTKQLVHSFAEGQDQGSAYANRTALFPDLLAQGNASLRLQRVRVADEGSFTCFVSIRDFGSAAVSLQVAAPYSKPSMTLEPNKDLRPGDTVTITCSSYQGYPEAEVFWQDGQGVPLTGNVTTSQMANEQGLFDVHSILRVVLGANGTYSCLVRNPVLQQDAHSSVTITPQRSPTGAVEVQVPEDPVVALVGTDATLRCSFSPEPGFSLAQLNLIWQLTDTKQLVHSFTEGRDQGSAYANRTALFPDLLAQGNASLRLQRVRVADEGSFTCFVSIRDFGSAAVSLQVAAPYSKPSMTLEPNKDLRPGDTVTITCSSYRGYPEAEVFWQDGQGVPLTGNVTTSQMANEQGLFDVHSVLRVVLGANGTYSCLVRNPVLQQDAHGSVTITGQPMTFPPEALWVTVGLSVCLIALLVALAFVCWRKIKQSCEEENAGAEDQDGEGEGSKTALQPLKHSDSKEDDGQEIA

| Binder | Kd [1] [nM] | EC50 (read off the curve) [2] [nM] |
| --- | --- | --- |
| B1 | 1470 | 2 |
| B2 | 502 |  |

Reference: patent publication US20210101984A1 (JIANGSU HENGRUI MEDICINE, published 2021)
